From patent US20130225506A1 (POLYPHOR, published 2013)
Each block holds one binder with its values, some of them ahead of it. Square brackets hold non-standard residues; d marks the D form. Primed or numbered codes have the meaning given here. dPro(cis-4-NH2) = N[C@H]1CN[C@@H](C(=O)O)C1; Pro(3S-OH) = O=C(O)[C@H]1NCC[C@@H]1O; dHyp = O=C(O)[C@H]1C[C@H](O)CN1; Cha = N[C@@H](CC1CCCCC1)C(=O)O; Chg = N[C@H](C(=O)O)C1CCCCC1; Orn(A41) = not defined here; dOrn = NCCC[C@@H](N)C(=O)O; Nle = CCCC[C@H](N)C(=O)O; dPip′ = not defined here; Abu = CC[C@H](N)C(=O)O

Molecular target: chemokine receptor CXCR7 (UniProt P25106 1-362, limits assumed)
Sequence (P25106 whole entry): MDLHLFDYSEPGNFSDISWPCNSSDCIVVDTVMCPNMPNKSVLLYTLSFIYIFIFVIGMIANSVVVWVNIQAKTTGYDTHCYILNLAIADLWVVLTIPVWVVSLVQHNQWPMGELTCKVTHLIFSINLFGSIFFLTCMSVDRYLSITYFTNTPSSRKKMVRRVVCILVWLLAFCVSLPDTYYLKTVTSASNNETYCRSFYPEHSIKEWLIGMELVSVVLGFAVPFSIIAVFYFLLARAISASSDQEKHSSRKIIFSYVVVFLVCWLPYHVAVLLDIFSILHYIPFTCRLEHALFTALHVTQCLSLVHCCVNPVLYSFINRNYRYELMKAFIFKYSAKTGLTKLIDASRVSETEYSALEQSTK
Test: cell-based or functional assay

- β-Arrestin EC50: 632 nM
Binder: cyclo(I[dR]RW[dHyp]T) (not fully specified) [cyclo(-Ile-^DArg-Arg-Trp-^DPro((4S)OH)-Thr-)]

- β-Arrestin EC50: 271 nM
B1: cyclo(-Val-^DArg-Arg-Trp-^DPro-Thr-) (peptide)
peptide: cyclo(V[dR]RW[dP]T)
SMILES: CC(C)[C@@H]1NC(=O)[C@H]([C@@H](C)O)NC(=O)[C@H]2CCCN2C(=O)[C@H](Cc2c[nH]c3ccccc23)NC(=O)[C@H](CCCNC(=N)N)NC(=O)[C@@H](CCCNC(=N)N)NC1=O

- β-Arrestin EC50: 518 nM
Binder: cyclo(I[dR][Orn(A41)]W[dP]T) (reading uncertain; also: printed as cyclo(-Ile-^DArg-Orn(A41)-Trp-^DPro-Thr-)) [cyclo(-Ile-^DArg-Orn(A41)-Trp-^DPro-Thr-)]

- β-Arrestin EC50: 46.4 nM
B2: cyclo(-Ile-^DArg-Arg-Phe-^DPro-Thr-) (peptide)
peptide: cyclo(I[dR]RF[dP]T)
SMILES: CC[C@H](C)[C@@H]1NC(=O)[C@H]([C@@H](C)O)NC(=O)[C@H]2CCCN2C(=O)[C@H](Cc2ccccc2)NC(=O)[C@H](CCCNC(=N)N)NC(=O)[C@@H](CCCNC(=N)N)NC1=O

- β-Arrestin EC50: 23.3 nM
B3: cyclo(-Ile-^DOrn-Arg-Trp-^DPro-Thr-) (peptide)
peptide: cyclo(I[dOrn]RW[dP]T)
SMILES: CC[C@H](C)[C@@H]1NC(=O)[C@H]([C@@H](C)O)NC(=O)[C@H]2CCCN2C(=O)[C@H](Cc2c[nH]c3ccccc23)NC(=O)[C@H](CCCNC(=N)N)NC(=O)[C@@H](CCCN)NC1=O

- β-Arrestin EC50: 8.2 nM
Binder: cyclo(I[dR]RW[dPip′][Pro(3S-OH)]) [cyclo(-Ile-^DArg-Arg-Trp-^DPip-Pro((3S)OH)-)]

- β-Arrestin EC50: 330 nM
B4: cyclo(-Abu-^DArg-Arg-Trp-^DPro-Thr-) (peptide)
peptide: cyclo([Abu][dR]RW[dP]T)
SMILES: CC[C@@H]1NC(=O)[C@H]([C@@H](C)O)NC(=O)[C@H]2CCCN2C(=O)[C@H](Cc2c[nH]c3ccccc23)NC(=O)[C@H](CCCNC(=N)N)NC(=O)[C@@H](CCCNC(=N)N)NC1=O

- β-Arrestin EC50: 948 nM
B5: cyclo(-Ile-^DArg-Arg-Trp-^DPro((4R)NH2)-Thr-) (peptide)
peptide: cyclo(I[dR]RW[dPro(cis-4-NH2)]T)
SMILES: CC[C@H](C)[C@@H]1NC(=O)[C@H]([C@@H](C)O)NC(=O)[C@H]2C[C@@H](N)CN2C(=O)[C@H](Cc2c[nH]c3ccccc23)NC(=O)[C@H](CCCNC(=N)N)NC(=O)[C@@H](CCCNC(=N)N)NC1=O

- β-Arrestin EC50: 37.7 nM
B6: cyclo(-Cha-^DArg-Arg-Trp-^DPro-Thr-) (peptide)
peptide: cyclo([Cha][dR]RW[dP]T)
SMILES: C[C@@H](O)[C@@H]1NC(=O)[C@H]2CCCN2C(=O)[C@H](Cc2c[nH]c3ccccc23)NC(=O)[C@H](CCCNC(=N)N)NC(=O)[C@@H](CCCNC(=N)N)NC(=O)[C@H](CC2CCCCC2)NC1=O

- β-Arrestin EC50: 6.7 nM
B7: cyclo(-Chg-^DArg-Arg-Trp-^DPro-Thr-) (peptide)
peptide: cyclo([Chg][dR]RW[dP]T)
SMILES: C[C@@H](O)[C@@H]1NC(=O)[C@H]2CCCN2C(=O)[C@H](Cc2c[nH]c3ccccc23)NC(=O)[C@H](CCCNC(=N)N)NC(=O)[C@@H](CCCNC(=N)N)NC(=O)[C@H](C2CCCCC2)NC1=O

- β-Arrestin EC50: 2.8 nM
B8: cyclo(-Nle-^DArg-Arg-Trp-^DPro-Thr-) (peptide)
peptide: cyclo([Nle][dR]RW[dP]T)
SMILES: CCCC[C@@H]1NC(=O)[C@H]([C@@H](C)O)NC(=O)[C@H]2CCCN2C(=O)[C@H](Cc2c[nH]c3ccccc23)NC(=O)[C@H](CCCNC(=N)N)NC(=O)[C@@H](CCCNC(=N)N)NC1=O

- β-Arrestin EC50: 5.3 nM
B9: cyclo(-Leu-^DArg-Arg-Trp-^DPro-Thr-) (peptide)
peptide: cyclo(L[dR]RW[dP]T)
SMILES: CC(C)C[C@@H]1NC(=O)[C@H]([C@@H](C)O)NC(=O)[C@H]2CCCN2C(=O)[C@H](Cc2c[nH]c3ccccc23)NC(=O)[C@H](CCCNC(=N)N)NC(=O)[C@@H](CCCNC(=N)N)NC1=O
